Test results reported in patent US20230060388A1 (SHANGHAI HENLIUS BIOTECH, published 2023).

T1: recombinant human TIGIT extracellular domain (ECD) (human, UniProt Q495A1 22-138)
T1 construct: also called h-TIGIT ECD; recombinant human TIGIT ECD
T1 sequence: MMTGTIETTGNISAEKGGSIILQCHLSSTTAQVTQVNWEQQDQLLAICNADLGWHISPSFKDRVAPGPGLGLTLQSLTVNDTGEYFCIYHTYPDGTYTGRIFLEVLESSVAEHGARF

T2: human TIGIT expressed on cells (stably transfected Jurkat cells) (human, UniProt Q495A1 22-244)
T2 construct: Also used here for TIGIT on primary T cells in the MLR; also called h-TIGIT; T cell immunoreceptor with Ig and ITIM domains
T2 sequence: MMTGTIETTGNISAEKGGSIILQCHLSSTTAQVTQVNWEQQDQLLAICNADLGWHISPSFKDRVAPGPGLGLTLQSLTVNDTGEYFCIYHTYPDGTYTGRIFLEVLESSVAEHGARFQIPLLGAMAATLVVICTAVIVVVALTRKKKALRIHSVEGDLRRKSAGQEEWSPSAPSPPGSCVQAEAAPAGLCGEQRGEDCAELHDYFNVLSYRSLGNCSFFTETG

B1: 4A11 VHH (VHH)
VHH: QVKLEESGGGEAQPGGSLRLSCTASGRPFSNYTMGWFRRAPGKEREFVGLAWPSPSTYVVDSVKGRFTISRDNAKNTIYLQMNSLKPEDTAIYYCAADYKSLTQSWLNAALDYWGQGTQVTVSS
notes: VHH in E. coli supernatant
B2: 4E5 VHH (VHH)
VHH: QVQLVDSGGGVVEVGASLTLSCETSGLTSSDIAVGWFRQGPGKERESVAAISSDGRFTYYAASVKGRFTISKDNAKSAAFLQMNSLKPEDTAVYYCAARDSGSGYYSRAQWYDYWGQGTQVTVSS
notes: VHH in E. coli supernatant
B3: 4D11 VHH (VHH)
VHH: QVQLQESGGGLVQPGGSLRLSCAASGSISSINAMGWYRLAPGKHREFVADITNSGSTNYAASVKGRFNISRDNAKDTVYLQMNSLKFEDTAVYYCTARRSTWYISSGRGTQVTVSS
notes: VHH in E. coli supernatant
B4: 4B5 VHH (VHH)
VHH: QVKLEESGGRSVLAGGSLRLRCAGTPRTFSTFHIGWFRQAPGKEREFVAAFNWSGGRTYYADSVKGRFTISRNNGKNMVYLQMTSLTPEDTGLYYCAAARDRGLHDGTTSDSYLEGSHEYEYWGQGTQVTVSS
notes: VHH in E. coli supernatant
B5: 4H6 VHH (VHH)
VHH: QVQLVESGGGLATAGASLILSCAASGTIFRLNRMGWFRQAPGKERERVAATIWSGRRTHYADSVKGRFTISTDNAKKTVYLRMSSLKPEDTAVYYCNYRRITPWEASGNYWGQGTQVTVSS
notes: VHH in E. coli supernatant
B6: 4C6 VHH (VHH)
VHH: QVQLVESGGGLVQAGGSLRLACAASGRTFSSYPMGWFRQGPGKERESVAAISSDGRFTYYAASVKGRFTISKDNAKSAAFLQMNSLKPEDTAVYRCAVDPTGWGTIEADFRSWGQGTQVTVSS
notes: VHH in E. coli supernatant
B7: 4H9 VHH (VHH)
VHH: QVQLVESGGGAVQAGGSLRLSCTASGPIARSRSTGMGWFRQGPGKERESVAAISSDGRFTYYAASVKGRFTISKDNAKSAAFLQMNSLKPEDTAVYYCAARDSGSGYYSRAQWYDYWGQGTQVTVSS
notes: VHH in E. coli supernatant
B8: 1A10 VHH (VHH)
VHH: QVQLVESGGGVVQPGRSLRLSCAASGNSFSSYPMGWFRQAPGKERESVAAISSDGRFSYYADSVKGRFTISRDNSKNTLYLQMNSLRAEDTAVYYCACRDSGSGYYSRAQWYDYWGQGTLVTVSS
B9: 5G10 VHH (VHH)
VHH: QVQLVESGGGVVQPGRSLRLSCAASGPRFSSYPMGWFRQAPGKERESVAAISSDGRFTYYADSVKGRFTISRDNSKNTLYLQMNSLRAEDTAVYYCAARDSGSGYYSRAQWYDGWGQGTLVTVSS
B10: 5E8 VHH (VHH)
VHH: QVQLVESGGGVVQPGRSLRLSCAASGPSFSSYPMGWFRQAPGKERESVAAQSSDGRFTYYADSVKGRFTISRDNSKNTLYLQMNSLRAEDTAVYYCAARDSGSGYYSRAQWYDYWGQGTLVTVSS
B11: 5B5 VHH (VHH)
VHH: QVQLVESGGGVVQPGRSLRLSCAASGPSFSSYPMGWFRQAPGKERESVAAISSDTRFTYYADSVKGRFTISRDNSKNTLYLQMNSLRAEDTAVYYCAARDSGSGYYSRAQWYDRWGQGTLVTVSS
B12: 2C5 VHH (VHH)
VHH: QVQLVESGGGVVQPGRSLRLSCAASGPSFSTYPMGWFRQAPGKERESVAAISSQGRFTYYADSVKGRFTISRDNSKNTLYLQMNSLRAEDTAVYYCAARDSGSGYYSRAQWYDYWGQGTLVTVSS
B13: 2A5 VHH (VHH)
VHH: QVQLVESGGGVVQPGRSLRLSCAASGPSFSSYPMGWFRQAPGKERESVAAISSVGRFTYYADSVKGRFTISRDNSKNTLYLQMNSLRAEDTAVYYCAARDSGSGYYSRWQWYDYWGQGTLVTVSS
B14: 1C7 VHH (VHH)
VHH: QVQLVESGGGVVQPGRSLRLSCAASGPSFSSYPMGWFRQAPGKERESVAAISSRGRFTYYADSVKGRFTISRDNSKNTLYLQMNSLRAEDTAVYYCAARGSGSGYYSRAQWYDYWGQGTLVTVSS
B15: 6B11 VHH (VHH)
VHH: QVQLVESGGGVVQPGRSLRLSCAASGPSFPSYPMGWFRQAPGKERESVAAISSRGRFTYYADSVKGRFTISRDNSKNTLYLQMNSLRAEDTAVYYCAARDSGSGYYSRLQWYDYWGQGTLVTVSS
B16: 6D8 VHH (VHH)
VHH: QVQLVESGGGVVQPGRSLRLSCAASGPSFSSKPMGWFRQAPGKERESVAARSSDGRFTYYADSVKGRFTISRDNSKNTLYLQMNSLRAEDTAVYYCAARDSGSGRYSRAQWYDYWGQGTLVTVSS
B17: 6E9 VHH (VHH)
VHH: QVQLVESGGGVVQPGRSLRLSCAASGPSRSSYPMGWFRQAPGKERESVAAISSDGKFTYYADSVKGRFTISRDNSKNTLYLQMNSLRAEDTAVYYCAARDSGSGYYSRANWYDYWGQGTLVTVSS
B18: 2A6 VHH (VHH)
VHH: QVQLVESGGGVVQPGRSLRLSCAASGPSFSLYPMGWFRQAPGKERESVAAISSDRRFTYYADSVKGRFTISRDNSKNTLYLQMNSLRAEDTAVYYCAARDSGSGYYSRAQWYDYWGQGTLVTVSS
B19: 1D11 VHH (VHH)
VHH: QVQLVESGGGVVQPGRSLRLSCAASGPSFSSSPMGWFRQAPGKERESVAAISSMGRFTYYADSVKGRFTISRDNSKNTLYLQMNSLRAEDTAVYYCAARDSGSGYYSRAQWYDYWGQGTLVTVSS
B20: 7B11 VHH (VHH)
VHH: QVQLVESGGGVVQPGRSLRLSCAASGPSFLIYPMGWFRQAPGKERESVAAISSDGRFWYYADSVKGRFTISRDNSKNTLYLQMNSLRAEDTAVYYCAARDSGSGYYSRVQWYDYWGQGTLVTVSS
B21: 6D12 VHH (VHH)
VHH: QVQLVESGGGVVQPGRSLRLSCAASGPSFSTYPMGWFRQAPGKERESVAAISSDGVFTYYADSVKGRFTISRDNSKNTLYLQMNSLRAEDTAVYYCAARDSGSGYYSREQWYDYWGQGTLVTVSS
B22: 2D5 VHH (VHH)
VHH: QVQLVESGGGVVQPGRSLRLSCAASGPSFSSSPMGWFRQAPGKERESVAAISWDGRFTYYADSVKGRFTISRDNSKNTLYLQMNSLRAEDTAVYYCAARDSGSGYYSRAQWYVYWGQGTLVTVSS
B23: 3H7 VHH (VHH)
VHH: QVKLEESGGGLVQAGGSLRLSCAASGSILSAGVMRWYRQAPGKQRELVASIALDGSTGYYIDSVKGRFTISRDNAKNIVYLDMRSLEPADTAVYLCNANIRTDMRSAPFDHWGHGTQVTVSS
notes: VHH in E. coli supernatant
B24: 12H7 VHH (VHH)
VHH: QVQLVDSGGGLVQAGGSLRLSCKVSGNFLSVSDMSWYRQAPGMERDVVATVTEHGRTTYTDSVKGRFTISRDNAEHTTYLEMNNLKPEDTAVYFCKASDVFTDAGAHEAVLIRDYWGQGTQVTVSS
notes: VHH in E. coli supernatant
B25: 4C5 VHH (VHH)
VHH: QVQLVDSGGGLVQAGGSLRLSCAVSGRSVSTYFVGWFRQAPGKEREFVAAIDRGSTVTRYDDSVKGRFTISRDNAKDTVYLQMNSLKPEDTAVYYCAAKAITRNFIATNDYDYWGQGTQVTVSS
notes: VHH in E. coli supernatant

Tests used:
[1] = biological target: T1, recombinant human TIGIT extracellular …; assay: ELISA, VHH supernatant on h-TIGIT ECD coated plates
Description: The VHH antibody genes were amplified by PCR under protocols know in the art, purified by DNA agarose gel, constructed into a phagemid vector pADL-23c (Antibody Design Labs) and transformed to TG1 electrocompetent cells (from Lucigen). Transformed TG1 cells were cultured in Y2T medium. […] Phages in supernatants of culture were harvested by centrifugation, and panning of binders to human-TIGIT (h-TIGIT) or cynomolgus-TIGIT (cyno-TIGIT) antigen was performed using streptavidin-coupled Dynabeads coated with biotinylated h-TIGIT or cyno-TIGIT ECD. After 3 rounds of panning, binders of h-TIGIT or cyno-TIGIT were eluted, which were used to infect SS320 cells. Colonies of SS320 cells were picked and cultured in Y2T medium, and IPTG was added for secretion of VHH antibodies. Supernatants with VHH antibodies were screened by ELISA assays using h-TIGIT ECD coated plates. Positive h-TIGIT binders were picked for sequencing. 29 clones with different sequences were selected. Binding ability of VHH antibodies on cyno-TIGIT was also examined by ELISA. The top 21 binders and their CDRs and VHs are shown in the Sequence Table (SEQ ID NOS: 1-84).

[2] = biological target: T2, human TIGIT expressed on cells (stably …); assay: whole cell binding to h-TIGIT stable cells, EC50 plotted against the blocking ELISA IC50
[3] = biological target: T1, recombinant human TIGIT extracellular …; assay: PVR blocking ELISA (blocked ligand: PVR), IC50 plotted against the whole cell binding EC50

binding result [1] | binding result [2] | binding result [3] | Binder
binds | – | – | B1
binds | – | – | B2
binds | – | – | B3
binds | – | – | B4
binds | – | – | B5
binds | – | – | B6
binds | – | – | B7
– | binds | binds | B8
– | binds | binds | B9
– | binds | binds | B10
– | binds | binds | B11
– | binds | binds | B12
– | binds | binds | B13
– | binds | binds | B14
– | binds | binds | B15
– | binds | binds | B16
– | binds | binds | B17
– | binds | binds | B18
– | binds | binds | B19
– | binds | binds | B20
– | binds | binds | B21
– | binds | binds | B22
binds | – | – | B23
binds | – | – | B24
binds | – | – | B25
